Experimental data from the supplement of paper PMC9170038.

test system: K4 kissing-loop RNA reporter; experiment: apparent KD of K4 kissing-loop reporter; higher = weaker reporter binding; details: Eterna round: R107; input ligand: FMN 200 uM
Method: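 RNA-MaP round R107: designed RNA switches with theophylline, tryptophan, arginine or FMN aptamers are transcribed on-chip within common flanks. They are titrated with a labelled K4 kissing-loop RNA reporter in RNA-MaP buffer (100 mM Tris pH 7.5, 80 mM KCl, 4 mM MgCl2), without ligand or with the indicated ligand. Median apparent KD per design.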
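Note: bound reporter read as fluorescence of individual clusters on recovered sequencing chips by microscopy, with normalized cluster intensities fitted with a binding model.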

Row | Sequence | apparent KD of K4 kissing-loop reporter [nM]
1 | GGGCGUGGCGCGGCCGCCACUGGGCCUGGGUGCUCGCUGAGUGAUGUUCGUCGGCGGUUGGGUCGUAGGACCGGGUGCUGGUUGG [BDazzled - #9 SS Tryptophan B] | 771
2 | AUAAACUUGCAGUGAUGUUGCAAGUAAGACUAGGAUAUCAGGAAACUGAGAAGGAGUCAUCUCCUUCAACUGCAAGAAUGAAGGA [[K1]-[K2]-[F1]-[F2]-[F]'-[K]'-[F]''_Design4] | 147
3 | UUAGAUGAUUCAUCAAGAUUGAUGAGGAAACGAGGACCGGUACGGCCGCCACUCGAGUGAUGUUCGAGAACCUCAUCAAUCAAUU [AK4.4 Exc Tryptophan A] | 162
4 | CCUAUCUCAUACGAUACCAGUCAAUGAUCUUUGAUCAAUGCCAUCACCGAGUGAUGUUCGGACCCUUGGCAGCGUAUGGGAUAGG [whbob_Ex_Theo_B_sa102] | 267
5 | UGUCAUGGAAACAUGAACGUUGAAAUAAGACGAGGACCGGUACGGCCGCCACUCGAAUAAUGGUCAGUGAUGUUGACUGGAAUAA [KL-SSTryp-A form1 sub7 #dotplot2>1] | 60.5
6 | AGAUAGGGCUGAAGGAGCGUCGGAGAAGAGAAGAAGAAAUCCAGUGAUGUUGGAUAAAUCCGACAGGUAGGUCGCAGUUUUAUGA [hbob_SS_Arginine_B_2t137] | 122
7 | AGUGAUGUGGGAAGGAGCGGUAUAUGAGUUCAGUGAUGUUGAAGUGAUGCUGUAGUGUUGUGCCAGGUAGGUCGCCUAGAUGUUA [KL-XARG B25] | 333
8 | UAAGAUUCUGUCUCAUUGAGACAGAAUCAACGAGGACCGGUACGGCCGCCACUCGGGUCCUAGAGUGAUGUUCUAAUAAUAUAAU [AK1 SS Tryptophan A] | 283
9 | ACGACUGGAUGAAUAACAUCUAGUCGAGAUCGAGGACCGGUACGGCCGCCACUCGAGCUAACUGCGAGUGAUGUUCGAUAAUAAA [#OpenEnded 2] | 277
10 | AGGAGCGUGGGAUGUAAAUCGCACGCUCCUCGAGGACCGGUACGGCCGCCACUCGCUCGCGCCGAGUGAUGUUCGGCCGGCGAAC [#2 Same State - Tryptophan A Attempt #13 (HarryS)] | 243
11 | UGACUGGACUGAAGGAGCGUGGAAGGAGCGUAAGUAGUGAUGUUGCUUACAGGUAGGUCGCCGCAGGUAGGUCGCAGUCUAGUCU | 62.5
12 | AGUGAUGUUGAGUUAUGUUAGUGAAGUGAUCGAGGACCGGUACGGCCGCCACUCGAGUGAUGAGUGAGUGAUGUUUGUUUAGUGA [bvbmullin] | 639
13 | UGACUGGAUGGAAGGAGCGCUAAACUCCUAGUGAUGUUAGGGACACGAGACAAAGUCUUGAAGCAGGUAGGUCGCCAUCUAGUCU [FiskerMod 9 - Jieux - Same State - Arginine B] | 217
14 | UCCUAGGCUCGAAAGAGCCUAGGAUUUACUCAGGAUAUCCGGAAACGGAGAAGGGAGUGACUAGUGAUGUUAGGGACUCCCUAUU | 93.1
15 | UAAUAAUAAUGAUAAUAAUCAAGUGGUGGACGAGGACCGGUACGGCCGCCACUCGAAAAUGCAGUGAUGUUGUAAUACGGAUAAU [Exclusion - Tryptophan A (Freestyle 2)] | 98.3
16 | AGCGACUCGAAAGGGUCGCGGCUAAGGGAUACCAGUGAUGUUGGUCACCCUUGGCAGCCCAGAAGCCAAGCCACCAAAGGUGGCA [Omei KL Theo A Exc A v10] | 124
17 | AGGUGAGAGUGAAGGAGCGAUCGCGCCAGUGAUGUUGGUGAGCAUGACGAAAGUCAUGCCGAUCAGGUAGGUCGCACUCUUACUC [Omei KL Arginine B SS B v3] | 700
18 | ACGAAAUGCGACUCCUAGUUACACCGGGAAGGAGCGCGGAUAACCGCAGGUAGGUCGCCCGGAAGCCGGACCAGUGAUGUUGGUC [Exclusion Arginine A Gf 27] | 240
19 | UGUAUGGACUGAAGGAGCGCUAGGAGUGUGAGUGAUGUUCAUACAAAUGUAUAGAUGGUCUGGCAGGUAGGUCGCAGUCCAUACU [KL-SSArg B4] | 258
20 | CCCAAGGGCCUACCGGUAUGAUGGACGGAUACCAGAGGCGAAAGCCUCCCUUGGCAGCCGGGUGUAGUGAUGUUACUCCGGUAGU | 75.1
21 | GCGGGCCAGACGGCCGCCACUCCGGGCAGUGAUGUUGCGAAACUUCUACUAGAGUGAUGUUCUACGAGGACCGGGUCGGAACGCG [Exclusion Tryptophan B Gf 13] | 789
22 | UCGAUGGCCAGCGAUACCAGCCCAGUGAUGUUGGGCACAUGGUUGCGGGAAAUCCCAUUGGGCCCUUGGCAGCGCUUGCAUAGGU [Cezaat] | 197

Row | Sequence | apparent KD of K4 kissing-loop reporter [nM]
23 | CAAAUGUUGUCAGGAUAUGAGCGCAGUGAUGUUGCGGUUGUAUUUAUGACUGGAGCAGCGUAAGCCUCAGAAGGGACAAGUUGCC [Qubioran] | 167
24 | AGCUGUAGCAGAAGGAGCGACAGUUAUUCUGAUAGUACUCUGAGUGAUGUUCAGAACGACUGUCAGGUAGGUCGCUGUUACAGCU [Arg B Ex t8b] | 166
25 | UACUAUAUUCUGUCGUUUAUAUUAUUUUGUCAGGAUAUCGUUUAUUCGAGAAGGGACACUAUCUAGUGAUGUUAGAUUUUUCUUU [JR_Nu_ExcFMNA_Sub029] | 55.8
26 | AGGAUGUAGUGAUGUUAUAUAAGAAGUAAACGAGGACCGGUACGGCCGCCACUCGAAGCGGCUACUAGCGCGCGCGCGCGCGCGC [ExTryptoA.Ca] | 298
27 | GGUGUUGUUUGUGCCGCCUUCCUCGUUCCUCGAGGACCGGUACGGCCGCCACUCGAGUGAUGUUUGGGUAGCGAUCCCUGCUAGU [Bdazzled - #12 Exc. Tryptophan A] | 877
28 | AUCGUUGUCUGAGGAUAUCGGUUAUCUGUAGUGAUGUUACAGUAUAUUGAUAUUAAAGAUUCUAUUCGAGAAGGCAGACAACGUA [JR_Nu3_ExcFMNB_Sub023] | 75.5
29 | UCGGGCGGCUGAAGGAGCGGGCGGGCCCGAGUGAUGUUCGGGUGGGCUGUGAGGCCCGGAGCCCAGGUAGGUCGCGGUUCCGCCC [#2 Same State - Arginine B Attempt #28 (HarryS)] | 262
30 | GGUUCCUCAGUGAUGUUGAGGUGACCUCGGCAGGAUAUAGGCAUUACUAGAAGGGCCAAAAGAACCCUGUGUAGCGACACAGGGA [Beerma] | 150
31 | AAGGUAUCACCAACUUGUAACAUAGGUGAUACCAGCAUCGAAAGAUGCCCUUGGCAGCACCAACUUGCAGUGAUGUUGCAAGUAA [(T)'-(H)'-(T1)-(T2)-(H1)-(H2)_Design11] | 166
32 | UGGAUAUCGUUUAGUCUGGUGAGCUCAGAUACCAGACUAGCGAUAGUCCCUUGGCAGCUGAUUAUGAUUGAGUGAUGUUCAAUCG [Theo A Ex t9b] | 168
33 | AGUGAUGUUUCUUUUAAGAGUGAUGUUUUUCGAGGACCGGUACGGCCGCCACUCGAGUGAUGAGUGCGUUGUUGUGAUGUUUAGU [#12 K4 Tryptophan A Exclusion] | 461
34 | GCCGUACGCAUGGAUACCAGCUGCGAAGUGAUGUUUCGGGCGAUCAAAGGAUCGCCCUACAGCCCUUGGCAGCCAUGCGUACGGC | 215
35 | CGCAGUGAUGUUGCGAGUAGAUACAGGGAAGGAGCGCGGUAGUACGCAGGUAGGUCGCCCACGCAGUGAUGUUGCGUCAUAGGGU [Exclusion Arginine A GF6] | 103
36 | AGCAUUUUCAGAAGGAGCGUGAAUUAUUCUUAAGUAUAUUAUACGAGUGAUGUUCGUAUUUCACAGGUAGGUCGCUGAUAUAGCA [JR_SSArginiB_Sub003] | 57.4
37 | AUAGGCUAGCGAAACGCUAGCCUAACAGAUACCAGUCGCGAAAGCGACCCUUGGCAGCUGCUGAGUGAUGUUCAGGUGAAUGAAU | 442
38 | UGAUACCAGACUGAUACCAGCCACAGAGUCAAAGACUCUGAUAAAGGUACCAGUGAUGUUGGCCCUUGGCAGCAGUCUGGUAUCU [TheoBX 17 #SwitchBubble #StaticStem] | 158
39 | UAACUUGCAGUGAUGUUGCAAGAACUGGAUACCAGCAUGGAAACAUGCCCUUGGCAGCCAGAAGGUAUCCUACAUCACAGAUACU [Design2] | 220
40 | GAUAUAUAGACGGCCGCCACUUAUAAAUUUCAGUGAUGUUGAAAUGUUAAAUAACGAACACAAUAGAGGACCGGGUCAAAUAUCG [Same State Tryptophan B GF 2] | 162
41 | AGGAUCCACCAGUGAUGUUGGAAAUACAUCAAGGAUAUGACGAAAGUCAGAAGGUGGUAGACUGGACAAAGUCCAGUUGGAUCCA [KL-SSFMN-A18] | 135
42 | GUACACUCUCGAGUGAUGUUCGGUAAUAGAGAGGAUAUCGCUUUUGCGAGAAGGCUCUGAAUGAGGAAACUCGUUCUGUGUGUAC [FMN A 20] | 906
43 | GCGCGUCAUGUCAGCGGUGACUACGUCGAUACCAGCAGGGAAACCUGCCCUUGGCAGCGACGCGCUGGAGUGAUGUUCCGACGGC [#2 Exclusion - Theophylline A Attempt #7 (HarryS)] | 184

same assay, conditions: Eterna round: R107; input ligand: arginine 13.2 mM

Row | Sequence | apparent KD of K4 kissing-loop reporter [nM]
44 | GGGCGUGGCGCGGCCGCCACUGGGCCUGGGUGCUCGCUGAGUGAUGUUCGUCGGCGGUUGGGUCGUAGGACCGGGUGCUGGUUGG [BDazzled - #9 SS Tryptophan B] | 347
45 | AUAAACUUGCAGUGAUGUUGCAAGUAAGACUAGGAUAUCAGGAAACUGAGAAGGAGUCAUCUCCUUCAACUGCAAGAAUGAAGGA [[K1]-[K2]-[F1]-[F2]-[F]'-[K]'-[F]''_Design4] | 108
46 | UUAGAUGAUUCAUCAAGAUUGAUGAGGAAACGAGGACCGGUACGGCCGCCACUCGAGUGAUGUUCGAGAACCUCAUCAAUCAAUU [AK4.4 Exc Tryptophan A] | 150
47 | CCUAUCUCAUACGAUACCAGUCAAUGAUCUUUGAUCAAUGCCAUCACCGAGUGAUGUUCGGACCCUUGGCAGCGUAUGGGAUAGG [whbob_Ex_Theo_B_sa102] | 212
48 | UGUCAUGGAAACAUGAACGUUGAAAUAAGACGAGGACCGGUACGGCCGCCACUCGAAUAAUGGUCAGUGAUGUUGACUGGAAUAA [KL-SSTryp-A form1 sub7 #dotplot2>1] | 104
49 | AGAUAGGGCUGAAGGAGCGUCGGAGAAGAGAAGAAGAAAUCCAGUGAUGUUGGAUAAAUCCGACAGGUAGGUCGCAGUUUUAUGA [hbob_SS_Arginine_B_2t137] | 135
50 | AGUGAUGUGGGAAGGAGCGGUAUAUGAGUUCAGUGAUGUUGAAGUGAUGCUGUAGUGUUGUGCCAGGUAGGUCGCCUAGAUGUUA [KL-XARG B25] | 254
51 | UAAGAUUCUGUCUCAUUGAGACAGAAUCAACGAGGACCGGUACGGCCGCCACUCGGGUCCUAGAGUGAUGUUCUAAUAAUAUAAU [AK1 SS Tryptophan A] | 350
52 | ACGACUGGAUGAAUAACAUCUAGUCGAGAUCGAGGACCGGUACGGCCGCCACUCGAGCUAACUGCGAGUGAUGUUCGAUAAUAAA [#OpenEnded 2] | 302
53 | AGGAGCGUGGGAUGUAAAUCGCACGCUCCUCGAGGACCGGUACGGCCGCCACUCGCUCGCGCCGAGUGAUGUUCGGCCGGCGAAC [#2 Same State - Tryptophan A Attempt #13 (HarryS)] | 325
